# Test results reported in US20100317583A1, “TREATMENT OF MELANOMA WITH ALPHA THYMOSIN PEPTIDES IN COMBINATION WITH AN ANTINEOPLASTIC HEAT SHOCK APOPTOSIS ACTIVATOR (HSAA)” (SciClone Pharmaceuticals, Inc., priority 2007, published 2010).
# Where two headings read alike, the source gives them in different places. No end group written: not given here.
# Type: in vivo
# Details: for Body weight (Mean ± SD) / PI (BW), inhibition of body weight vs vehicle: low-dose arms: TA-1 6 mg/kg s.c. daily, Pac 10 + Ele 10 mg/kg co-i.v. Days 1, 7, 13
# Description: In this study, the anti-tumor effect of the combined treatment of thymosin alpha-1 (TA-1), Paclitaxel (Pac) and Elesclomol (Ele) was evaluated in C57BL/6 mice bearing B16 melanoma cells. The toxic effects of the dosing regimens were also monitored. A total of 60 mice were implanted subcutaneously with murine B16 cells, followed by treatment with TA-1 or Pac/Ele alone or in combination for 14 consecutive days. TA-1 was given daily via s.c., while Pac and Ele were co-i.v. administered on Day 1, 7 and 13. In total, 6 groups were used: Group 1: vehicle; Group 2: TA-1 6 mg/kg; Group 3: Pac 10 mg/kg+Ele 10 mg/kg; Group 4: Pac 30 mg/kg+Ele 30 mg/kg; Group 5: TA-1 6 mg/kg+Pac 10 mg/kg+Ele 10 mg/kg; and Group 6: TA-1 6 mg/kg+Pac 30 mg/kg+Ele 30 mg/kg. Tumor volume and body weight were measured every three days, and tumor weights were measured on Day 17 at the end of the study.
# On Day 1, the animals were randomly assigned into different weight-matched groups, and dosing was started using the regimen according to Table 2. Briefly, TA-1 was administered once daily via subcutaneous (s.c.) injection for 14 consecutive days at a site different from that of tumor cell implantation, while Pac and Ele was administered on Days 1, 7, and 13 via an intravenous (i.v.) injection.
# From Day 1 to Day 15, mortality and moribundity were checked twice daily, the body weights were recorded once every 3 days, and tumors were measured using a caliper once every 3 days. At the end of the study (Day 17), the animals were euthanized by CO2 asphyxiation, and the tumors were excised and weighed.
# Toxicity of all treatment regimens was evaluated with the body weights of the study animals along with the drug-induced animal deaths. The inhibition of body weight was calculated using Excel according to the equation below:
# PIBW(%)=100×(BW vehicle−BW drug treated)/BW vehicle
# Inter-group comparison was performed in terms of tumor volume, tumor weight and body weight, using a student's t test. P values of less than 0.05 were considered to be statistically significant.
substance,measurement,setting,value
"thymosin alpha 1 (SDAAVDTSSEITTKDLKEKKEVVEEAEN; ends and bridges not checked; UniProt P06454 2-29, looked up) [TA-1, 28 amino acid peptide with a molecular weight of 3108; immunomodulator]",Body weights,"Day 0, animal F1",21.5 g
same,Body weights,"Day 0, animal F2",20.8 g
same,Body weights,"Day 0, animal F3",19.3 g
same,Body weights,"Day 0, animal F4",20.0 g
same,Body weights,"Day 0, animal F5",19.9 g
same,Body weights,"Day 0, animal M1",21.8 g
same,Body weights,"Day 0, animal M2",21.5 g
same,Body weights,"Day 0, animal M3",22.9 g
same,Body weights,"Day 0, animal M4",20.7 g
same,Body weights,"Day 0, animal M5",21.4 g
same,Body weights,"Day 3, animal F2",19.0 g
same,Body weights,"Day 3, animal F3",20.2 g
same,Body weights,"Day 3, animal F4",19.8 g
same,Body weights,"Day 3, animal F5",19.1 g
same,Body weights,"Day 3, animal M1",21.1 g
same,Body weights,"Day 3, animal M2",17.8 g
same,Body weights,"Day 3, animal M3",19.7 g
same,Body weights,"Day 3, animal M4",20.4 g
same,Body weights,"Day 3, animal M5",19.8 g
same,Body weight (Mean ± SD),Day 3,19.44 ± 1.12 g
same,"PI (BW), inhibition of body weight vs vehicle",Day 3,1.17%
same,Body weights,"Day 6, animal F2",21.2 g
same,Body weights,"Day 6, animal F3",21.2 g
same,Body weights,"Day 6, animal F4",20.7 g
same,Body weights,"Day 6, animal F5",21.5 g
same,Body weights,"Day 6, animal M1",22.8 g
same,Body weights,"Day 6, animal M2",22.3 g
same,Body weights,"Day 6, animal M3",22.7 g
same,Body weights,"Day 6, animal M4",21.1 g
same,Body weights,"Day 6, animal M5",22.2 g
same,Body weight (Mean ± SD),Day 6,21.63 ± 0.81 g
same,"PI (BW), inhibition of body weight vs vehicle",Day 6,−0.42%
same,Body weights,"Day 9, animal F1",20.4 g
same,Body weights,"Day 9, animal F2",20.7 g
same,Body weights,"Day 9, animal F3",20.4 g
same,Body weights,"Day 9, animal F4",20.2 g
same,Body weights,"Day 9, animal F5",20.0 g
same,Body weights,"Day 9, animal M1",22.5 g
same,Body weights,"Day 9, animal M2",21.2 g
same,Body weights,"Day 9, animal M3",22.5 g
same,Body weights,"Day 9, animal M4",20.9 g
same,Body weights,"Day 9, animal M5",21.7 g
same,Body weight (Mean ± SD),Day 9,21.05 ± 0.91 g
same,"PI (BW), inhibition of body weight vs vehicle",Day 9,1.13%
same,Body weights,"Day 12, animal F1",21.5 g
same,Body weights,"Day 12, animal F2",21.3 g
same,Body weights,"Day 12, animal F3",20.2 g
same,Body weights,"Day 12, animal F4",20.1 g
same,Body weights,"Day 12, animal F5",20.1 g
same,Body weights,"Day 12, animal M1",22.4 g
same,Body weights,"Day 12, animal M2",21.5 g
same,Body weights,"Day 12, animal M3",22.4 g
same,Body weights,"Day 12, animal M4",21.0 g
same,Body weights,"Day 12, animal M5",22.2 g
same,Body weight (Mean ± SD),Day 12,21.27 ± 0.91 g
same,"PI (BW), inhibition of body weight vs vehicle",Day 12,2.03%
same,Body weights,"Day 15, animal F1",21.7 g
same,Body weights,"Day 15, animal F2",21.5 g
same,Body weights,"Day 15, animal F3",21.2 g
same,Body weights,"Day 15, animal F4",21.2 g
same,Body weights,"Day 15, animal F5",21.1 g
same,Body weights,"Day 15, animal M1",22.5 g
same,Body weights,"Day 15, animal M2",22.5 g
same,Body weights,"Day 15, animal M3",23.4 g
same,Body weights,"Day 15, animal M4",22.0 g
same,Body weights,"Day 15, animal M5",23.6 g
same,Body weight (Mean ± SD),Day 15,22.07 ± 0.91 g
same,"PI (BW), inhibition of body weight vs vehicle",Day 15,1.25%
